The values below come from publication PMC10319729.

The target of this assay is LGR4 co-expressed with ZNRF3ΔRING on HEK293T cells (LGR4-E3 ligase complex), Q9BXB1.

B1: RSPO2 furin domain with a C-terminal His tag (R2Fu-His), Q6UXX9 37-143 (domain or fragment)
chain: NPICKGCLSCSKDNGCSRCQQKLFFFLRREGMRQYGECLHSCPSGYYGHRAPDMNRCARCRIENCDSCFSKDFCTKCKVGFYLHRGRCFDECPDGFAPLEETMECVE
With B1, the EC50 of TOPFlash (Wnt/β-catenin reporter) activity in STF cells, which endogenously express LGR4, RNF43 and ZNRF3 turned out to be 0.79 nM.
